Source: US20230056336A1 (KYVERNA THERAPEUTICS, published 2023)

molecular target: T1, basiliximab fab; assay: BLI; CD25-Fc on anti-hFc biosensor, basiliximab Fab in solution; global 1:1 fit;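 also: biolayer interferometry signals normalized against a reference probe and smoothed with a Savitzky-Golay filter before the global fit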
T1 construct: The assay used a Fab of basiliximab; Chimeric antibody: human IgG1 constant, mouse variable domains
T1 sequence (VH, as listed by the source limits assumed, chain 1 of 2): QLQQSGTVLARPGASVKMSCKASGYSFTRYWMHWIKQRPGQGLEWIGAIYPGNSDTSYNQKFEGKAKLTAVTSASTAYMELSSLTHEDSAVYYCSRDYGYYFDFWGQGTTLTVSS
T1 sequence (VL, as listed by the source limits assumed, chain 2 of 2): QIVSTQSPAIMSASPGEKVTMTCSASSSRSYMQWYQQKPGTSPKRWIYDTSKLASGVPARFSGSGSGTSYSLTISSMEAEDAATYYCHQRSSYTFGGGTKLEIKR
Method: Briefly, binding affinity (KD) of CD25 mutants from Table 1 was measured using biolayer interferometry. […] Experimental data was normalized to a reference probe and high-frequency noise was removed by Savitzky-Golay filtering. On and off-rate constants were determined using a globally fitted 1:1 binding model.

Row | Binder | Kd [nM] | koff [s⁻¹] | kon [M⁻¹ s⁻¹]
1 | CD25 L2F mutant (CD25-Fc) (Fc fusion, not shown: Fc part of CD25-Fc) EFCDDDPPEIPHATFKAMAYKEGTMLNCECKRGFRRIKSGSLYMLCTGNSSHSSWDNQCQCTSSATRNTTKQVTPQPEEQKERKTTEMQSPMQPVDQASLPGHCREPPPWENEATERIYHFVVGQMVYYQCVQGYRALHRGPAESVCKMTHGKTRWTQPQLICTGEMETSQFPGEEKPQASPEGRPESETSCLVTTTDFQIQTEMAATMETSIFTTEYQ | 1.07 | 0.00252 | 2.36e+06
2 | CD25 L2I mutant (CD25-Fc) (Fc fusion, not shown: Fc part of CD25-Fc) EICDDDPPEIPHATFKAMAYKEGTMLNCECKRGFRRIKSGSLYMLCTGNSSHSSWDNQCQCTSSATRNTTKQVTPQPEEQKERKTTEMQSPMQPVDQASLPGHCREPPPWENEATERIYHFVVGQMVYYQCVQGYRALHRGPAESVCKMTHGKTRWTQPQLICTGEMETSQFPGEEKPQASPEGRPESETSCLVTTTDFQIQTEMAATMETSIFTTEYQ | 3.46 | 0.000734 | 212000
3 | CD25 L2Y mutant (CD25-Fc) (Fc fusion, not shown: Fc part of CD25-Fc) EYCDDDPPEIPHATFKAMAYKEGTMLNCECKRGFRRIKSGSLYMLCTGNSSHSSWDNQCQCTSSATRNTTKQVTPQPEEQKERKTTEMQSPMQPVDQASLPGHCREPPPWENEATERIYHFVVGQMVYYQCVQGYRALHRGPAESVCKMTHGKTRWTQPQLICTGEMETSQFPGEEKPQASPEGRPESETSCLVTTTDFQIQTEMAATMETSIFTTEYQ | 1.51 | 0.00263 | 1.75e+06
4 | CD25 L42A mutant (CD25-Fc) (Fc fusion, not shown: Fc part of CD25-Fc) ELCDDDPPEIPHATFKAMAYKEGTMLNCECKRGFRRIKSGSAYMLCTGNSSHSSWDNQCQCTSSATRNTTKQVTPQPEEQKERKTTEMQSPMQPVDQASLPGHCREPPPWENEATERIYHFVVGQMVYYQCVQGYRALHRGPAESVCKMTHGKTRWTQPQLICTGEMETSQFPGEEKPQASPEGRPESETSCLVTTTDFQIQTEMAATMETSIFTTEYQ | 0.242 | 2.49e-05 | 103000
5 | CD25 L42F mutant (CD25-Fc) (Fc fusion, not shown: Fc part of CD25-Fc) ELCDDDPPEIPHATFKAMAYKEGTMLNCECKRGFRRIKSGSFYMLCTGNSSHSSWDNQCQCTSSATRNTTKQVTPQPEEQKERKTTEMQSPMQPVDQASLPGHCREPPPWENEATERIYHFVVGQMVYYQCVQGYRALHRGPAESVCKMTHGKTRWTQPQLICTGEMETSQFPGEEKPQASPEGRPESETSCLVTTTDFQIQTEMAATMETSIFTTEYQ | 7.65 | 0.000772 | 101000
6 | CD25 L42G mutant (CD25-Fc) (Fc fusion, not shown: Fc part of CD25-Fc) ELCDDDPPEIPHATFKAMAYKEGTMLNCECKRGFRRIKSGSGYMLCTGNSSHSSWDNQCQCTSSATRNTTKQVTPQPEEQKERKTTEMQSPMQPVDQASLPGHCREPPPWENEATERIYHFVVGQMVYYQCVQGYRALHRGPAESVCKMTHGKTRWTQPQLICTGEMETSQFPGEEKPQASPEGRPESETSCLVTTTDFQIQTEMAATMETSIFTTEYQ | 1.14 | 0.000152 | 133000
7 | CD25 L42I mutant (CD25-Fc) (Fc fusion, not shown: Fc part of CD25-Fc) ELCDDDPPEIPHATFKAMAYKEGTMLNCECKRGFRRIKSGSIYMLCTGNSSHSSWDNQCQCTSSATRNTTKQVTPQPEEQKERKTTEMQSPMQPVDQASLPGHCREPPPWENEATERIYHFVVGQMVYYQCVQGYRALHRGPAESVCKMTHGKTRWTQPQLICTGEMETSQFPGEEKPQASPEGRPESETSCLVTTTDFQIQTEMAATMETSIFTTEYQ | 23.3 | 0.0116 | 499000
8 | CD25 L42V mutant (CD25-Fc) (Fc fusion, not shown: Fc part of CD25-Fc) ELCDDDPPEIPHATFKAMAYKEGTMLNCECKRGFRRIKSGSVYMLCTGNSSHSSWDNQCQCTSSATRNTTKQVTPQPEEQKERKTTEMQSPMQPVDQASLPGHCREPPPWENEATERIYHFVVGQMVYYQCVQGYRALHRGPAESVCKMTHGKTRWTQPQLICTGEMETSQFPGEEKPQASPEGRPESETSCLVTTTDFQIQTEMAATMETSIFTTEYQ | 3.93 | 0.000748 | 190000
9 | CD25 L42W mutant (CD25-Fc) (Fc fusion, not shown: Fc part of CD25-Fc) ELCDDDPPEIPHATFKAMAYKEGTMLNCECKRGFRRIKSGSWYMLCTGNSSHSSWDNQCQCTSSATRNTTKQVTPQPEEQKERKTTEMQSPMQPVDQASLPGHCREPPPWENEATERIYHFVVGQMVYYQCVQGYRALHRGPAESVCKMTHGKTRWTQPQLICTGEMETSQFPGEEKPQASPEGRPESETSCLVTTTDFQIQTEMAATMETSIFTTEYQ | 1.04 | 0.000201 | 194000
10 | CD25 L42Y mutant (CD25-Fc) (Fc fusion, not shown: Fc part of CD25-Fc) ELCDDDPPEIPHATFKAMAYKEGTMLNCECKRGFRRIKSGSYYMLCTGNSSHSSWDNQCQCTSSATRNTTKQVTPQPEEQKERKTTEMQSPMQPVDQASLPGHCREPPPWENEATERIYHFVVGQMVYYQCVQGYRALHRGPAESVCKMTHGKTRWTQPQLICTGEMETSQFPGEEKPQASPEGRPESETSCLVTTTDFQIQTEMAATMETSIFTTEYQ | 1.75 | 0.000325 | 186000
11 | CD25 S41D mutant (CD25-Fc) (Fc fusion, not shown: Fc part of CD25-Fc) ELCDDDPPEIPHATFKAMAYKEGTMLNCECKRGFRRIKSGDLYMLCTGNSSHSSWDNQCQCTSSATRNTTKQVTPQPEEQKERKTTEMQSPMQPVDQASLPGHCREPPPWENEATERIYHFVVGQMVYYQCVQGYRALHRGPAESVCKMTHGKTRWTQPQLICTGEMETSQFPGEEKPQASPEGRPESETSCLVTTTDFQIQTEMAATMETSIFTTEYQ | 6.49 | 0.00708 | 1.09e+06
12 | CD25 S41E mutant (CD25-Fc) (Fc fusion, not shown: Fc part of CD25-Fc) ELCDDDPPEIPHATFKAMAYKEGTMLNCECKRGFRRIKSGELYMLCTGNSSHSSWDNQCQCTSSATRNTTKQVTPQPEEQKERKTTEMQSPMQPVDQASLPGHCREPPPWENEATERIYHFVVGQMVYYQCVQGYRALHRGPAESVCKMTHGKTRWTQPQLICTGEMETSQFPGEEKPQASPEGRPESETSCLVTTTDFQIQTEMAATMETSIFTTEYQ | 6.08 | 0.00719 | 1.18e+06
13 | CD25 S41N mutant (CD25-Fc) (Fc fusion, not shown: Fc part of CD25-Fc) ELCDDDPPEIPHATFKAMAYKEGTMLNCECKRGFRRIKSGNLYMLCTGNSSHSSWDNQCQCTSSATRNTTKQVTPQPEEQKERKTTEMQSPMQPVDQASLPGHCREPPPWENEATERIYHFVVGQMVYYQCVQGYRALHRGPAESVCKMTHGKTRWTQPQLICTGEMETSQFPGEEKPQASPEGRPESETSCLVTTTDFQIQTEMAATMETSIFTTEYQ | 3.85 | 0.00707 | 1.84e+06
14 | CD25 S41Q mutant (CD25-Fc) (Fc fusion, not shown: Fc part of CD25-Fc) ELCDDDPPEIPHATFKAMAYKEGTMLNCECKRGFRRIKSGQLYMLCTGNSSHSSWDNQCQCTSSATRNTTKQVTPQPEEQKERKTTEMQSPMQPVDQASLPGHCREPPPWENEATERIYHFVVGQMVYYQCVQGYRALHRGPAESVCKMTHGKTRWTQPQLICTGEMETSQFPGEEKPQASPEGRPESETSCLVTTTDFQIQTEMAATMETSIFTTEYQ | 5.25 | 0.00512 | 975000
15 | CD25 T47D mutant (CD25-Fc) (Fc fusion, not shown: Fc part of CD25-Fc) ELCDDDPPEIPHATFKAMAYKEGTMLNCECKRGFRRIKSGSLYMLCDGNSSHSSWDNQCQCTSSATRNTTKQVTPQPEEQKERKTTEMQSPMQPVDQASLPGHCREPPPWENEATERIYHFVVGQMVYYQCVQGYRALHRGPAESVCKMTHGKTRWTQPQLICTGEMETSQFPGEEKPQASPEGRPESETSCLVTTTDFQIQTEMAATMETSIFTTEYQ | 3.66 | 0.00787 | 2.15e+06
16 | CD25 T47N mutant (CD25-Fc) (Fc fusion, not shown: Fc part of CD25-Fc) ELCDDDPPEIPHATFKAMAYKEGTMLNCECKRGFRRIKSGSLYMLCNGNSSHSSWDNQCQCTSSATRNTTKQVTPQPEEQKERKTTEMQSPMQPVDQASLPGHCREPPPWENEATERIYHFVVGQMVYYQCVQGYRALHRGPAESVCKMTHGKTRWTQPQLICTGEMETSQFPGEEKPQASPEGRPESETSCLVTTTDFQIQTEMAATMETSIFTTEYQ | 12.8 | 0.00776 | 608000
17 | CD25 T47S mutant (CD25-Fc) (Fc fusion, not shown: Fc part of CD25-Fc) ELCDDDPPEIPHATFKAMAYKEGTMLNCECKRGFRRIKSGSLYMLCSGNSSHSSWDNQCQCTSSATRNTTKQVTPQPEEQKERKTTEMQSPMQPVDQASLPGHCREPPPWENEATERIYHFVVGQMVYYQCVQGYRALHRGPAESVCKMTHGKTRWTQPQLICTGEMETSQFPGEEKPQASPEGRPESETSCLVTTTDFQIQTEMAATMETSIFTTEYQ | 4.49 | 0.00588 | 1.31e+06
18 | CD25 Y43R mutant (CD25-Fc) (Fc fusion, not shown: Fc part of CD25-Fc) ELCDDDPPEIPHATFKAMAYKEGTMLNCECKRGFRRIKSGSLRMLCTGNSSHSSWDNQCQCTSSATRNTTKQVTPQPEEQKERKTTEMQSPMQPVDQASLPGHCREPPPWENEATERIYHFVVGQMVYYQCVQGYRALHRGPAESVCKMTHGKTRWTQPQLICTGEMETSQFPGEEKPQASPEGRPESETSCLVTTTDFQIQTEMAATMETSIFTTEYQ | 1.39 | 0.000399 | 236000
